Reference: article PMC7294093, “S-Glutathionylation of human inducible Hsp70 reveals a regulatory mechanism involving the C-terminal α-helical lid” (The Journal of Biological Chemistry, 2020)
Several values for one entry are separate records, joined by “and”; a condition that tells them apart may be missing. Identical values can stand only once. Ends that are not written are not given here. * marks the point of attachment. FITC = O=C1OC2(c3ccc(O)cc3Oc3cc(O)ccc32)c2ccc(NC(=S)*)cc21

Columns and labels:
Settings in all cases: both partners purified
[1] = biological target: hHsp70-CSSCA (hHsp70 C267S/C306S/C603A) (human, UniProt P0DMV8 1-641, C267S | C306S | C603A); test: fluorescence polarisation; kinetic time course at RT; 20 nM FAR with 10 μM hHsp70 or mutant, apo or with ADP/ATP (1 mM; 0.5 mM ADP in Fig. 7C); 1 mM diamide with 1 mM GSH added at 60 min, 10 mM DTT at 120 min
Chain of hHsp70-CSSCA (hHsp70 C267S/C306S/C603A) (P0DMV8 whole entry C267S/C306S/C603A): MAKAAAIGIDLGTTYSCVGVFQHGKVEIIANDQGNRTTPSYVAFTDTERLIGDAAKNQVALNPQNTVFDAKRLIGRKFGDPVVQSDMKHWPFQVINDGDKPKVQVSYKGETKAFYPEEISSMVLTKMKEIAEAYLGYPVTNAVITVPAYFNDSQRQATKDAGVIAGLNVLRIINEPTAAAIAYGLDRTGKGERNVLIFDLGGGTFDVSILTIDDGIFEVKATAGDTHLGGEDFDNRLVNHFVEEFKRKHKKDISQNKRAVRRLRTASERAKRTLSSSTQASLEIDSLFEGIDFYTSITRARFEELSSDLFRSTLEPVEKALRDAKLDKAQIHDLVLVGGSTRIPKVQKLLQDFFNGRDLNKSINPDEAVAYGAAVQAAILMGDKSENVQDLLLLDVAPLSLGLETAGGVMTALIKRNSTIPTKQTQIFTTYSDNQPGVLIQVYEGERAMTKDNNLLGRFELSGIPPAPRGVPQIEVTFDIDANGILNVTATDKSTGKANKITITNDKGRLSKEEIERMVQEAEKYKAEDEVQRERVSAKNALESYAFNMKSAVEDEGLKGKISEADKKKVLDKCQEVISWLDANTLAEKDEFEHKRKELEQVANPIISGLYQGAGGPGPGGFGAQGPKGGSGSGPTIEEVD

[2] = biological target: hHsp70-CSSAC (hHsp70 C267S/C306S/C574A) (human, UniProt P0DMV8 1-641, C267S | C306S | C574A); test: as above
Chain of hHsp70-CSSAC (hHsp70 C267S/C306S/C574A) (P0DMV8 whole entry C267S/C306S/C574A): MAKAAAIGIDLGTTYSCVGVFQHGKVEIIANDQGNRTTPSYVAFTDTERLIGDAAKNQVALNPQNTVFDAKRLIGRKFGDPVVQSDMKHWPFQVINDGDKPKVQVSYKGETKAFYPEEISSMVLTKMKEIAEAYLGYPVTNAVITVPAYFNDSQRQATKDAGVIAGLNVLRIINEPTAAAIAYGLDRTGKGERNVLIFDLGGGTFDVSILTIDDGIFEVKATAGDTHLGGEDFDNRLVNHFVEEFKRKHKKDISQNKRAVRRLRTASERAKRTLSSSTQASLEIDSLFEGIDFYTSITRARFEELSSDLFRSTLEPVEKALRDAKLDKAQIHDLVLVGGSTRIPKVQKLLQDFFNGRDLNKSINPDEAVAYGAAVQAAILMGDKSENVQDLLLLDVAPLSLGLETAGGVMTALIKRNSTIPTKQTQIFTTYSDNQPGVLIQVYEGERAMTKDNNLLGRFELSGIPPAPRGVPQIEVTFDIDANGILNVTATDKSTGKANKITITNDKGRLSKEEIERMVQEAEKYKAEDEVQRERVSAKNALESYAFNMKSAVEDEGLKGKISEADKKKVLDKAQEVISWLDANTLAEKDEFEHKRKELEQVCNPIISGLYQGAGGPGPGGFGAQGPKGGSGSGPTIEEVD

[3] = biological target: hHsp70 T204A (binds but does not hydrolyze ATP) (human, UniProt P0DMV8 1-641, T204A); test: as above
Chain of hHsp70 T204A (binds but does not hydrolyze ATP) (P0DMV8 whole entry T204A): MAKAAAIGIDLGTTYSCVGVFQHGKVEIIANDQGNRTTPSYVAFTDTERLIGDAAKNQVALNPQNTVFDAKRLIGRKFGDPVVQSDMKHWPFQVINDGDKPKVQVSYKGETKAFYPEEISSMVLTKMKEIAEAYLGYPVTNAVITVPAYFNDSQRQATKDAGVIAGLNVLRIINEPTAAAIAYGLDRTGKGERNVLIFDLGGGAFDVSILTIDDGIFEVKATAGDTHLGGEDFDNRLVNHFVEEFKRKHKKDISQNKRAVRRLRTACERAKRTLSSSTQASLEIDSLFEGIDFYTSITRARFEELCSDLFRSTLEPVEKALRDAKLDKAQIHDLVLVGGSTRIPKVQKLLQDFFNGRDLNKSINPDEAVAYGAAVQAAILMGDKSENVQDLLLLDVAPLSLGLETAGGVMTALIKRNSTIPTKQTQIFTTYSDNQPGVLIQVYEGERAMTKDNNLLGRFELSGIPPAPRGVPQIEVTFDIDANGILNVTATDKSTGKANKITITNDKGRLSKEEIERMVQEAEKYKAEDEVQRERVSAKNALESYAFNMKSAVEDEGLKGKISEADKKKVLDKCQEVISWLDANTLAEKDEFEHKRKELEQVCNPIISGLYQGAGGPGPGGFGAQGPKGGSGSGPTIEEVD

hHsp70-CSSSS (hHsp70 …) = biological target: hHsp70-CSSSS (hHsp70 C267S/C306S/C574S/C603S) (human, UniProt P0DMV8 1-641, C267S | C306S | C574S | C603S); test: fluorescence polarisation; steady state; 20 nM FAR with increasing hHsp70 or mutant; apo (no nucleotide); Buffer B; RT, 60 min; single site binding model
[4] = biological target: hHsp70-CSSCC (hHsp70 C267S/C306S) (human, UniProt P0DMV8 1-641, C267S | C306S); test: as above
Chain of hHsp70-CSSCC (hHsp70 C267S/C306S) (P0DMV8 whole entry C267S/C306S, the tested form may be a part): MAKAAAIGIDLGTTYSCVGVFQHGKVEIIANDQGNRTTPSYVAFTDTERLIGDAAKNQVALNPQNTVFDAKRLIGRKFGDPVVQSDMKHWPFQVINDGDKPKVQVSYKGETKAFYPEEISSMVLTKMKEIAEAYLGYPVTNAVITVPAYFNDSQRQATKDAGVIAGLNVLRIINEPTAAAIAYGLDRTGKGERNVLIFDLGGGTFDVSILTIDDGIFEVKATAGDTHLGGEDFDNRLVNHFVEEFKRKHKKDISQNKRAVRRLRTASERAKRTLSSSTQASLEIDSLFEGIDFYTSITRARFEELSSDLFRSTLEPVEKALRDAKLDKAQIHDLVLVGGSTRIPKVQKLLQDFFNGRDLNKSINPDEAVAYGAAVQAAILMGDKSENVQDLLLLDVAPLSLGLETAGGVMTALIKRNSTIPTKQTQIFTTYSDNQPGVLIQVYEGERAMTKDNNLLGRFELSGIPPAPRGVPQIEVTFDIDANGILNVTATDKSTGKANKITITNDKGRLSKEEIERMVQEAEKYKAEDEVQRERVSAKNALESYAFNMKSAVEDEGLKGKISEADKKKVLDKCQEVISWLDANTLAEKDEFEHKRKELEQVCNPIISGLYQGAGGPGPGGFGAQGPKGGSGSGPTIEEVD

[5] = biological target: T1, WT hHsp70 (human HspA1A), full-length (residues 1–641) (human, UniProt P0DMV8 1-641); test: as above
T1 construct: The deglutathionylated sample (glutathionylated, then 10 mM DTT) carries no modification and is written as this molecule; the label in the row tells which sample it was; also called HspA1A/B; untreated control (-C); source: monomeric peak collected
T1 sequence (P0DMV8 whole entry, the tested form may be a part): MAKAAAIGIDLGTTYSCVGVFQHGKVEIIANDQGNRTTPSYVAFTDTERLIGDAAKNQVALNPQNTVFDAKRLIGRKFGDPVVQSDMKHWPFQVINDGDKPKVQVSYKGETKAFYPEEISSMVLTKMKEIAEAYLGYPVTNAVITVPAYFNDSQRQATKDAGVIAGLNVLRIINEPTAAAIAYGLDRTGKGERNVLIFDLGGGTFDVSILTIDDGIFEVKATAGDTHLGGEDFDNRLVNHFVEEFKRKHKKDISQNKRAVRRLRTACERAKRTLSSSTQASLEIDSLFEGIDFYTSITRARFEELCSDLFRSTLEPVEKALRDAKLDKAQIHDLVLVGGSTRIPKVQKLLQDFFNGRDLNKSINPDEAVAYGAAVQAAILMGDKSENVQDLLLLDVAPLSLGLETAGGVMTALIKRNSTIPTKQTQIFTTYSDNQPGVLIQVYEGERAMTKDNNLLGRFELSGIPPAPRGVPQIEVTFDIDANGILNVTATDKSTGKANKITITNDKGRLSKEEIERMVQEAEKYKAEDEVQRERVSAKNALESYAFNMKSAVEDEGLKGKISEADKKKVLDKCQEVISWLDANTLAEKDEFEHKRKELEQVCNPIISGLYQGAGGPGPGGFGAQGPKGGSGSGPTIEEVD

hHsp70-CSSAS (hHsp70 …) = biological target: hHsp70-CSSAS (hHsp70 C267S/C306S/C574A/C603S) (human, UniProt P0DMV8 1-641, C267S | C306S | C574A | C603S); test: as above
Chain of hHsp70-CSSAS (hHsp70 C267S/C306S/C574A/C603S) (P0DMV8 whole entry C267S/C306S/C574A/C603S): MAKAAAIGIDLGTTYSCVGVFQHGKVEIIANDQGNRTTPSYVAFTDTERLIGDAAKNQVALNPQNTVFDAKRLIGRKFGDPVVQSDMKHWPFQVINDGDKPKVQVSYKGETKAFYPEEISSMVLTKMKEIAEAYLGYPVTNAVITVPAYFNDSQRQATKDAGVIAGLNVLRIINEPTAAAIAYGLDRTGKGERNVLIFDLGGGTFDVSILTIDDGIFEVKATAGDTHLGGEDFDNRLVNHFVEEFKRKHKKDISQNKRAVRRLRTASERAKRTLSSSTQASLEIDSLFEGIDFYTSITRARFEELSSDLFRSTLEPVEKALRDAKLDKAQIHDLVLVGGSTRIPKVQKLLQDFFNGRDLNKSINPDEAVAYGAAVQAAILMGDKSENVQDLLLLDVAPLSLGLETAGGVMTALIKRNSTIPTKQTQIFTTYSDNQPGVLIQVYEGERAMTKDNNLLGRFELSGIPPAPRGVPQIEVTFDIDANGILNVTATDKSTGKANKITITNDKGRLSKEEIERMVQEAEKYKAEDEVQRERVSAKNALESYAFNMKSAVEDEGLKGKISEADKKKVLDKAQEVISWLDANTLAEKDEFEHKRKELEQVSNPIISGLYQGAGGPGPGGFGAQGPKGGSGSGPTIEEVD

hHsp70-CSSAA (hHsp70 …) = biological target: hHsp70-CSSAA (hHsp70 C267S/C306S/C574A/C603A) (human, UniProt P0DMV8 1-641, C267S | C306S | C574A | C603A); test: as above
Chain of hHsp70-CSSAA (hHsp70 C267S/C306S/C574A/C603A) (P0DMV8 whole entry C267S/C306S/C574A/C603A): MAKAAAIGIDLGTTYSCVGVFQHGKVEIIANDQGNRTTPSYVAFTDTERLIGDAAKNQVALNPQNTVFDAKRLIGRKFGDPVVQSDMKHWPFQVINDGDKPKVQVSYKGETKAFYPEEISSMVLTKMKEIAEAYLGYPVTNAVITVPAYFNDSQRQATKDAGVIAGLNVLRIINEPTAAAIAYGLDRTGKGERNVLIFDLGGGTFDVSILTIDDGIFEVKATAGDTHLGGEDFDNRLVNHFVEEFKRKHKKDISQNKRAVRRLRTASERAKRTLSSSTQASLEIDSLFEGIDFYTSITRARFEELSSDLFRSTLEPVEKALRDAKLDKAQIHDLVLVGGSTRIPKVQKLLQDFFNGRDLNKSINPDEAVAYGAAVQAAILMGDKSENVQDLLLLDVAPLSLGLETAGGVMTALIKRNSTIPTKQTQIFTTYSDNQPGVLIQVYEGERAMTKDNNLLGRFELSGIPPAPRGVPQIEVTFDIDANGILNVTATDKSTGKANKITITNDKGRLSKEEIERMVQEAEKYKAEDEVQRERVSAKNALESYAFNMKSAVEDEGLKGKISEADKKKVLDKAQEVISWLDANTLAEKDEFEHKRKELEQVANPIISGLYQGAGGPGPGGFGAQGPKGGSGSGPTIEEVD

[6] = biological target: T1, WT hHsp70 (human HspA1A), full-length …; test: fluorescence polarisation; steady state; 20 nM FAR with increasing hHsp70 (control, glutathionylated or deglutathionylated); 0.5 mM ADP in Buffer B (50 mM Tris-HCl pH 7.5, 100 mM KCl, 5 mM MgCl2); RT, 60 min; single site binding model

- binding result [1]: binds
- binding result [2]: binds
- binding result [3]: binds
- binding result (hHsp70-CSSSS (hHsp70 …)): binds
- Kd [4]: 1.35 ± 0.23 µM
- Kd [5]: 1.12 ± 0.12 µM
- Kd (hHsp70-CSSAS (hHsp70 …)): 1.44 ± 0.54 µM
- Kd (hHsp70-CSSAA (hHsp70 …)): 1.19 ± 0.21 µM
- Kd [6]: 1.07 µM and 1.2 µM
Binder: {FITC}-ALLLSAPRR (fluorescently labeled peptide substrate) [FITC-labeled ALLLSAPRR (FAR) peptide]
